{
  "source": "paper PMC8423076",
  "target": "SARS-CoV-2 receptor-binding domain (RBD) homodimer (SARS-CoV-2) (UniProt P0DTC2)",
  "experiment": "reducing and non-reducing SDS-PAGE",
  "data": [
    {"substance": "SARS-CoV-2 receptor-binding domain (RBD) homodimer (from UniProt P0DTC2 319-541) (domain or fragment)", "values": [
      {"measurement": "stoichiometry N", "result": 2}
    ]}
  ]
}
